These results are taken from publication PMC6272748, “Cysteine Specific Targeting of the Functionally Distinct Peroxiredoxin and Glutaredoxin Proteins by the Investigational Disulfide BNP7787” (Molecules, 2015).

The series concerns the molecule itself. Briefly: crystal structure; co-crystal of BNP7787-modified Prx 4 from 1.6 M ammonium sulfate, 0.1 M MES pH 6.5, 10% dioxane; 2.3 Å, space group C2; five molecules in the asymmetric unit, decamer generated by crystal symmetry.

B1: human peroxiredoxin 4 (Prx 4) carrying a BNP7787-derived mesna adduct (enzyme, UniProt Q13162 79-271, looked up)
chain: AKISKPAPYWEGTAVIDGEFKELKLTDYRGKYLVFFFYPLDFTFVCPTEIIAFGDRLEEFRSINTEVVACSVDSQFTHLAWINTPRRQGGLGPIRIPLLSDLTHQISKDYGVYLEDSGHTLRGLFIIDDKGILRQITLNDLPVGRSVDETLRLVQAFQYTDKHGEVCPAGWKPGSETIIPDPAGKLKYFDKLN
modifications: BNP7787-derived mesna mixed disulfide on Cys 124 (in all molecules of the decamer); whole protein mass spectrometry consistent with two mesna adducts, the second proposed on Cys 245 (not visible in the electron density)
notes: Peroxiredoxin 4, human, wild type; No density beyond residue 242 in the crystal; TEV cleavage is described only for Grx 1; also called Prx IV; BNP7787-modified Prx 4; source: E. coli BL21(RIPL), purified (Ni2+ IMAC, size exclusion), reduced with DTT, then incubated with 40 mM BNP7787; copies: 10
A word on the stoichiometry N: it is a count of units in the complex or per binding partner. As for B1, the “stoichiometry N” value was 10.
